# Laboratory results as given in patent US20260234276A1 (DOMAIN THERAPEUTICS, published 2026).
# Where a chain is given by its changes, count along the chain named. Values joined by “and” are separate entries in the source; they are usually repeats but may differ in a detail not shown here. Equal entries are not always repeated.
# B1: 3-76 (antibody, human IgG1, kappa, V domains shown)
# VH: EVQLVESGGGLVQPGRSLRLSCTASGFTFNTYAMNWVRQAPGKGLEWVARIRSKSNNYATYYAASVKGRFTISRDDSKSIAYLQMNSLKTEDTAVYYCVRGREAYYRYDGGYYAMDVWGQGTTVTVSS
# VL: DIVMTQAAPSLPVTPGESASISCRSSKSLLHSNGNTYLYWFLQKPGQSPQLLIYRMSNLASGVPDRFSGSGSGTAFTLKISRVEAEDVGVYYCMQHLEYPFTFGSGTKLEIKR
# notes: humanized, human IgG1 kappa
# B2: 3-13 (antibody, V domains shown)
# VH: KVQLQQSGPELVKPGASVKISCKTSGYTFTEYTIHWVQQIHGKSPEWIGGINPNGDTRYDQKFKGKATLTIDKSSSTAYMELRSLTSEDSAVYYCARVARFYGISPYAMDYWGQGTSVTVSS
# VL: DVVMTQTPLSLPVSLGDQASISCRCTQSLLHSNGDTYLHWYLQKPGQSPNLLIYKVSNRFSGVPDRFSGSGSGTDFTLKINRVEAEDLGVYFCSQSTHVPYTFGGGTNLEIK
# B3: 3-33 (antibody, V domains shown)
# VH: EVQLQQSGPELVKPGASVKISCKTSGYTFTEYTIHWVKQSHGESLEWVGGINPNNGNTRYDQKFKGKATLTIDKSSSPAYMELRSLTSEDSAVYYCARVARSSGSGPYAMDYWGQGTSVTVSS
# VL: B2 VL with S32T, N50K, N81S, N108K
# B4: 3-21 (antibody, V domains shown)
# VH: QVQLKESGPGLVAPSQSLSITCTVSGLSMNDYVVTWIRQPPGKGLEWLGVIWGGGNTYYNSDLKSRLSITKDNSKSQVFFKMSSLQTDDTAVYYCARRHRDYALDYWGQGISVTVSS
# VL: B2 VL with C25S, T26S, L30V, H31Y, D35N, N50K, N81S, H98Y, Y101P, N108K
# B5: 3-53 (antibody, V domains shown)
# VH: QVQVQQSGAELARPGASVKMSCKASGYTFTTYAMHWVKQRPGQGLEWIGHINPSSGYSNYNQKFKDKATLTADKSSSTAYMQLSSLTSEDSAVYYCARSEVRRGYFDVWGAGTTVTVSS
# VL: DIQMTQTTSSLSASLGDRVTISCRTSQDIRNYLNWYQQKPDGTVKLLISYTSRLHSGVPSRFSGSGSGTDYSLTISNLEQEDFATYFCQQGNTLPPTFGGGTRVEIK
# B6: 3-83 (antibody)
# heavy: not shown
# light: DIVMTQAAPSLSVTPGESASISCTSSKSLLHSNGNTYLYWFLQKPGQSPQLLIYRMSNLASGVPDRFSGSGSGTAFTLKISRVEAEDVGVYYCMQHREYPFTFGSGTKLEIKRTVAAPSVFIFPPSDEQLKSGTASVVCLLNNFYPREAKVQWKVDNALQSGNSQESVTEQDSKDSTYSLSSTLTLSKADYEKHKVYACEVTHQGLSSPVTKSFNRGEC
# B7: 3-85 (antibody)
# heavy: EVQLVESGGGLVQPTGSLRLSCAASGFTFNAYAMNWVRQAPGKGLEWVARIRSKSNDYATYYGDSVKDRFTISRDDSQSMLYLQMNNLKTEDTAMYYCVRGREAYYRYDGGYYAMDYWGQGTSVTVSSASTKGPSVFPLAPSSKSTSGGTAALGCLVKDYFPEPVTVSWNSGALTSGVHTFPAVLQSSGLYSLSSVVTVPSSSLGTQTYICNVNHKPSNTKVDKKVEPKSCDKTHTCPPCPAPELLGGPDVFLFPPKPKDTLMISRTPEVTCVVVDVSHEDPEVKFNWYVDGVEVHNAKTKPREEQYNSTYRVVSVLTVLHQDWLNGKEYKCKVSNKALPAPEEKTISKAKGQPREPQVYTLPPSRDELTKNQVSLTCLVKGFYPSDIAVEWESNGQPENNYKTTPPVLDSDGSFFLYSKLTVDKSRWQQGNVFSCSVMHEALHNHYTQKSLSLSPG
# light: B6 light with L11V, A19V, K44R, K79R
# B8: 3-2 (antibody, V domains shown)
# VH: EVQLVESGGGLVKPGGSLKLSCAASGFTFSSYAMSWVRQTPEKRLEWVATINSGGSYTFYPDSVKGRFTISRDNAKNTLYLQMSSLRSVDTAIYYCARVSGYDERFAYWGQGTLVTVSA
# VL: DVLMTQTPLSLPVSLGAQASISCRSSQSIVHSNGNTYLEWYLQKPGQSPKLLIYKVSNRFSGVPDRFSGSGSGTDFTLKLSRVEAEDLGVYYCFQGSHVPPTFGGGTKLEIK
# Molecular target: T1, human CCR8 (human, UniProt P51685 1-355)
# Experiment: cell-based or functional assay
Binder,"hCCL1 (100 nM) residual response, Protocol #2, mAb 0.08 µg/mL [%]","hCCL1 (100 nM) residual response, Protocol #2, mAb 0.4 µg/mL [%]","hCCL1 (100 nM) residual response, Protocol #2, mAb 10 µg/mL [%]","hCCL1 (100 nM) residual response, Protocol #3, mAb 0.05 µg/mL [%]","hCCL1 (100 nM) residual response, Protocol #3, mAb 0.5 µg/mL [%]","hCCL1 (100 nM) residual response, Protocol #3, mAb 5 µg/mL [%]"
B1,88,82,64,88,71,70
B2,101,93,100,92,81,73
B3,104,46,28,80,57,45
B4,99,97,97,99,84,75
B5,52,68,53,76,62,59

# Molecular target: T1, human CCR8
# Experiment: cell-based or functional assay
# Remark: another data set of the same source
row,Binder,"Top plateau value (% of hCCL1 100 nM) with 5 µg/mL mAb, Protocol #3 [%]"
1,B2,663
2,B3,855
3,B4,133
4,B5,948

# Molecular target: T1, human CCR8
# Experiment: flow cytometry, HUT78 cells (native CCR8)
# Procedure: The same staining protocol was applied on human CCR8 transfected CHO cell line versus wild type CHO cell line, cutaneous T cell lymphoma HUT78 cell line and human activated T cell model.
# Briefly, 1·10⁵ cells per well in a 96 well plate were incubated with a dilution of unconjugated anti-CCR8 mAb at 10 μg/mL then diluted at 1/3.33, 4 dilution points (during 30 min at 4° C.). […] To determine EC50 value, 8 concentrations of anti-CCR8 mAb were tested. Unbound antibodies were washed away with PBS (Invitrogen by Thermofisher Scientific, Illkirch-Graffenstaden, France) supplemented by 2% Fetal Bovine Serum (Invitrogen by Thermofisher Scientific, Illkirch-Graffenstaden, France) and 2 mM EDTA (Invitrogen by Thermofisher Scientific, Illkirch-Graffenstaden, France). Subsequently, cells are centrifuged (5 min at 400 g) and bound antibody is detected with F(ab′)₂-Goat anti-Mouse IgG (H+L) Cross-Adsorbed Secondary Antibody, Alexa Fluor 488 (dilution 1/500) (Invitrogen by Thermofisher Scientific, Illkirch-Graffenstaden, France) or with F(ab′)₂-Goat anti-Human IgG Fc Secondary Antibody, PE (Invitrogen by Thermofisher Scientific, Illkirch-Graffenstaden, France) (dilution 1/1000) at 4° C. for 30 min. Detection reagent is washed away and cells are centrifuged (5 min at 400 g) and resuspended in 30 μL PBS. Bound detection antibody is quantified on a MacsQuant16 (Miltenyi, Gladbach, Germany) (B1 or B2 channel, 5000 events per acquisition).
Binder,% of labelled cells [%],EC50 [nM]
B6,34,0.4

# Molecular target: T2, pm8 (human, sulfated tyrosines at Y15, Y16 and Y17)
# Experiment: ELISA on coated peptide [cont.]
# Procedure: (§1) The specific binding properties of antibodies were evaluated by ELISA with coated CCR8 related peptides (500 ng/mL) in carbonate/bicarbonate buffer. Different peptides were used as described in Table 1 (see Example 1). Each anti-CCR8 mAb was tested at 1 μg/mL then diluted at 1/10. After an incubation at room temperature during 90 min, unbound mAbs were removed by washings. […] After washings, 3,3′,5,5′-tetramethylbenzidine (TMB) (Interchim, Montlugon, France) was added for 15 min. Then the optical density (OD) was determined by using a multiplate reader (Tecan, Lyon, France) and correlated with mAb reactivity on the panel of coated peptides.
# T2 sequence (peptide, as listed by the source): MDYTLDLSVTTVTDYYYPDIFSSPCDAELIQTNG
row,Binder,binding result
1,B1,binds
2,B2,binds
3,B3,binds
4,B4,binds
5,B5,binds

# Molecular target: T3, pm5 (human, sulfated tyrosines at Y15 and Y17)
# Experiment: ELISA on coated peptide [cont.]
# Procedure: as §1
# T3 sequence (peptide, as listed by the source): as above
row,Binder,binding result
1,B1,binds
2,B2,binds
3,B3,binds
4,B4,binds
5,B5,binds

# Molecular target: T4, pm6 (human, sulfated tyrosines at Y16 and Y17)
# Experiment: ELISA on coated peptide [cont.]
# Procedure: as §1
# T4 sequence (peptide, as listed by the source): as above
row,Binder,binding result
1,B1,binds
2,B2,binds
3,B3,binds
4,B4,binds
5,B5,binds

# Molecular target: T5, pm3 (human, sulfated tyrosine at Y17)
# Experiment: ELISA on coated peptide [cont.]
# Procedure: as §1
# T5 sequence (peptide, as listed by the source): as above
row,Binder,binding result
1,B1,binds
2,B2,binds
3,B3,binds
4,B4,binds
5,B5,binds

# Molecular target: T1, human CCR8
# Experiment: cell-based or functional assay
# Remark: another data set of the same source
Binder,"IC50 (Gi2 BRET, pH 6.5)","IC50 (Gi2 BRET, pH 7.4)"
B1,0.024 µg/ml and 0.157 nM,0.048 µg/ml and 0.318 nM
B2,0.051 µg/ml and 0.34 nM,0.059 µg/ml and 0.396 nM
B4,0.414 µg/ml and 2.76 nM,0.359 µg/ml and 2.4 nM
B5,0.012 µg/ml and 0.08 nM,0.015 µg/ml and 0.097 nM

# Molecular target: T1, human CCR8
# Experiment: cell-based or functional assay
# Remark: another data set of the same source
row,Binder,"ADCP % Max of phagocytosis, monocyte-derived macrophages Donor 9 [%]"
1,B6,8.29
2,B7,7.27

# Molecular target: T1, human CCR8
# Experiment: competition HTRF on HEK-293 cells with hCCR8; blocked ligand CCL1-AF647 [cont.]
row,Binder,IC50 (read off the curve) [µg/mL]
1,B1,~0.02

# Molecular target: T1, human CCR8
# Experiment: cell-based or functional assay
# Remark: another data set of the same source
Binder,"ADCC % Max lysis, NK cells Donor 1 [%]","ADCC % Max lysis, NK cells Donor 2 [%]","ADCC EC50, NK cells Donor 1 [pM]","ADCC EC50, NK cells Donor 2 [pM]"
B6,22,20,2.24,2.16
B7,31,26,73.3,90.4

# Molecular target: T1, human CCR8
# Experiment: flow cytometry, hCCR8 transfected CHOK1 cells
Binder,% positive cells [%],MFI fold change to isotype ctrl [fold]
B8,51.2,3.41
B2,85.7,9.8
B3,56.2,4.78
B4,85.2,11.9
B5,77,9.2

# Molecular target: T2, pm8
# Experiment: ELISA on coated peptide
# Procedure: as §1
row,Binder,binding result
1,B8,binds

# Molecular target: T3, pm5
# Experiment: ELISA on coated peptide
# Procedure: as §1
row,Binder,binding result
1,B8,binds

# Molecular target: T4, pm6
# Experiment: ELISA on coated peptide
# Procedure: as §1
row,Binder,binding result
1,B8,binds

# Molecular target: T5, pm3
# Experiment: ELISA on coated peptide
# Procedure: as §1
row,Binder,binding result
1,B8,binds
